Assay results reported in the supplement of paper PMC10567573.

B1: ALDH8A1 (parent)
chain: WSSRSPQERSRVLNQVADLLEQSL

Variants of: B1
Assay: protein stability index of a GFP-peptide fusion (GPS, HEK-293T) (PSI 1-6); higher = more stable
Details: c terminus: a fixed tail appended
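Note: lentivirally expressed fusions sorted by FACS into six bins by GFP to DsRed ratio, PSI derived from sequencing read proportions per bin multiplied by bin number.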

Variant | protein stability index
WSSRSPQERNRVLNQVADLLEQSL [S10N] | 2.29
WSSRSPQERPRVLNQVADLLEQSL [S10P] | 2.49
WSSRSPQERDRVLNQVADLLEQSL [S10D] | 3.14
WSSRSPQERRRVLNQVADLLEQSL [S10R] | 2.95
WSSRSPQERTRVLNQVADLLEQSL [S10T] | 1.81
WSSRSPQERVRVLNQVADLLEQSL [S10V] | 2.05
WSSRSPQERMRVLNQVADLLEQSL [S10M] | 2.45
WSSRSPQERGRVLNQVADLLEQSL [S10G] | 3.8
WSSRSPQERYRVLNQVADLLEQSL [S10Y] | 2.37
WSSRSPQERQRVLNQVADLLEQSL [S10Q] | 2.32
WSSRSPQERHRVLNQVADLLEQSL [S10H] | 2.58
WSSRSPQERERVLNQVADLLEQSL [S10E] | 3.11
WSSRSPQERLRVLNQVADLLEQSL [S10L] | 2.25
WSSRSPQERKRVLNQVADLLEQSL [S10K] | 1.99
WSSRSPQERCRVLNQVADLLEQSL [S10C] | 2.36
WSSRSPQERFRVLNQVADLLEQSL [S10F] | 1.24
WSSRSPQERARVLNQVADLLEQSL [S10A] | 2.41
WSSRSPQERWRVLNQVADLLEQSL [S10W] | 2.82
WSSRSPQERSRHLNQVADLLEQSL [V12H] | 3.05
WSSRSPQERSRYLNQVADLLEQSL [V12Y] | 2.74
WSSRSPQERSRELNQVADLLEQSL [V12E] | 3.88
WSSRSPQERSRCLNQVADLLEQSL [V12C] | 2.35
WSSRSPQERSRRLNQVADLLEQSL [V12R] | 2.71
WSSRSPQERSRALNQVADLLEQSL [V12A] | 3.11

Variant | protein stability index
WSSRSPQERSRPLNQVADLLEQSL [V12P] | 4.23
WSSRSPQERSRNLNQVADLLEQSL [V12N] | 3.99
WSSRSPQERSRILNQVADLLEQSL [V12I] | 1.98
WSSRSPQERSRLLNQVADLLEQSL [V12L] | 2.06
WSSRSPQERSRSLNQVADLLEQSL [V12S] | 3.78
WSSRSPQERSRDLNQVADLLEQSL [V12D] | 3.85
WSSRSPQERSRWLNQVADLLEQSL [V12W] | 1.73
WSSRSPQERSRGLNQVADLLEQSL [V12G] | 3.48
WSSRSPQERSRQLNQVADLLEQSL [V12Q] | 3.45
WSSRSPQERSRKLNQVADLLEQSL [V12K] | 3.07
WSSRSPQERSRFLNQVADLLEQSL [V12F] | 2.12
WSSRSPQERSRTLNQVADLLEQSL [V12T] | 3.47
WSSRSPQERSRMLNQVADLLEQSL [V12M] | 2.31
WSSRSPQETSRVLNQVADLLEQSL [R9T] | 2.23
WSSRSPQEFSRVLNQVADLLEQSL [R9F] | 2.56
WSSRSPQEISRVLNQVADLLEQSL [R9I] | 2.44
WSSRSPQEASRVLNQVADLLEQSL [R9A] | 2.59
WSSRSPQEVSRVLNQVADLLEQSL [R9V] | 2.37
WSSRSPQECSRVLNQVADLLEQSL [R9C] | 1.39
WSSRSPQEWSRVLNQVADLLEQSL [R9W] | 2.22
WSSRSPQEPSRVLNQVADLLEQSL [R9P] | 3.37
WSSRSPQEHSRVLNQVADLLEQSL [R9H] | 2.77
WSSRSPQEYSRVLNQVADLLEQSL [R9Y] | 2.21
WSSRSPQEESRVLNQVADLLEQSL [R9E] | 3.38

Variant | protein stability index
WSSRSPQEDSRVLNQVADLLEQSL [R9D] | 3.25
WSSRSPQEMSRVLNQVADLLEQSL [R9M] | 2.16
WSSRSPQENSRVLNQVADLLEQSL [R9N] | 2.86
WSSRSPQESSRVLNQVADLLEQSL [R9S] | 2.87
WSSRSPQELSRVLNQVADLLEQSL [R9L] | 2.48
WSSRSPQEGSRVLNQVADLLEQSL [R9G] | 2.96
WSSRSPQEKSRVLNQVADLLEQSL [R9K] | 2.83
WSSRSPQEQSRVLNQVADLLEQSL [R9Q] | 2.24
WSSRSPQERSRVLDQVADLLEQSL [N14D] | 2.28
WSSRSPQERSRVLEQVADLLEQSL [N14E] | 3.24
WSSRSPQERSRVLLQVADLLEQSL [N14L] | 1.62
WSSRSPQERSRVLPQVADLLEQSL [N14P] | 3.21
WSSRSPQERSRVLGQVADLLEQSL [N14G] | 2.38
WSSRSPQERSRVLRQVADLLEQSL [N14R] | 3.47
WSSRSPQERSRVLQQVADLLEQSL [N14Q] | 2.41
WSSRSPQERSRVLHQVADLLEQSL [N14H] | 2.17
WSSRSPQERSRVLYQVADLLEQSL [N14Y] | 4.15
WSSRSPQERSRVLTQVADLLEQSL [N14T] | 2.82
WSSRSPQERSRVLCQVADLLEQSL [N14C] | 2.21
WSSRSPQERSRVLKQVADLLEQSL [N14K] | 1.97
WSSRSPQERSRVLMQVADLLEQSL [N14M] | 1.79
WSSRSPQERSRVLSQVADLLEQSL [N14S] | 2.58
WSSRSPQERSRVLAQVADLLEQSL [N14A] | 2.56
WSSRSPQERSRVLWQVADLLEQSL [N14W] | 1.95

Variant | protein stability index
WSSRSPQERSRVLIQVADLLEQSL [N14I] | 2.02
WSSRSPQERSRVLVQVADLLEQSL [N14V] | 2.1
WSSRSPQERSRVLFQVADLLEQSL [N14F] | 1.26
WSSRSPQERSRVWNQVADLLEQSL [L13W] | 2.55
WSSRSPQERSRVINQVADLLEQSL [L13I] | 3.06
WSSRSPQERSRVTNQVADLLEQSL [L13T] | 3.5
WSSRSPQERSRVGNQVADLLEQSL [L13G] | 3.46
WSSRSPQERSRVKNQVADLLEQSL [L13K] | 3.53
WSSRSPQERSRVSNQVADLLEQSL [L13S] | 3.49
WSSRSPQERSRVQNQVADLLEQSL [L13Q] | 3.85
WSSRSPQERSRVRNQVADLLEQSL [L13R] | 3.03
WSSRSPQERSRVVNQVADLLEQSL [L13V] | 3.13
WSSRSPQERSRVFNQVADLLEQSL [L13F] | 2.4
WSSRSPQERSRVCNQVADLLEQSL [L13C] | 3.11
WSSRSPQERSRVNNQVADLLEQSL [L13N] | 3.54
WSSRSPQERSRVPNQVADLLEQSL [L13P] | 4.09
WSSRSPQERSRVANQVADLLEQSL [L13A] | 2.59
WSSRSPQERSRVDNQVADLLEQSL [L13D] | 3.81
WSSRSPQERSRVENQVADLLEQSL [L13E] | 3.49
WSSRSPQERSRVMNQVADLLEQSL [L13M] | 2.63
WSSRSPQERSRVYNQVADLLEQSL [L13Y] | 2.6
WSSRSPQERSRVHNQVADLLEQSL [L13H] | 2.73
